In the assay the target is A-beta1-42 (UniProt P05067). In words: iodixanol density gradient centrifugation of A-beta1-42 with FITC-labelled peptide; dye in fraction 12.

Non-standard residues stand in square brackets, D forms with d. No end group written: not given here.

A-beta1-42, sequence (P05067 672-713 limits assumed): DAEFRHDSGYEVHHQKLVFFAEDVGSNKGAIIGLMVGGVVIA

B1: RD3 (rational D3) (SEQ ID NO: 4) (peptide)
peptide: [dR][dR][dP][dT][dL][dR][dH][dT][dH][dN][dR][dR]
modifications: also: FITC label, site not given here
With B1, the Peptide bound in fraction 12 [%] amounted to 4%.

B2: D3Δhth (D3 with deletion hth) (SEQ ID NO: 1) (peptide)
peptide: [dR][dP][dR][dT][dR][dL][dR][dN][dR]
modifications: also: FITC label, site not given here
B2 came in with a Peptide bound in fraction 12 [%] of 2%.

B3: D3 (SEQ ID NO: 11) (peptide)
peptide: [dR][dP][dR][dT][dR][dL][dH][dT][dH][dR][dN][dR]
modifications: also: FITC label, site not given here
Molecule B3 registered a Peptide bound in fraction 12 [%] of 4%.

B4: NT-D3 (D3-N-Terminus) (SEQ ID NO: 6) (peptide)
peptide: [dR][dP][dR][dT][dR][dL]
In turn, B4 came in with a Peptide bound in fraction 12 [%] of 0%.

B5: RD2 (rational D3) (SEQ ID NO: 2) (peptide)
peptide: [dP][dT][dL][dH][dT][dH][dN][dR][dR][dR][dR][dR]
modifications: also: FITC label, site not given here
Regarding B5, the Peptide bound in fraction 12 [%] came to 20%.
